In patent US12569569B2, “Nano-delivery system and therapeutic and diagnostic use thereof” (NANOCARRY THERAPEUTICS LTD., priority 2020, dated 2026):

Test: ICP-MS quantification of Au and Pt in mice brains after IV cisplatin+insulin-GNPs
Assay type: in vivo, Male BALB/c mice
Settings: 8 hours post-administration
Description: Male BALB/c mice aged 6-7 weeks were administered intravenously through the tail vein with 200 μl of cisplatin+insulin-GNPs (approximately 0.1 mg of cisplatin according to ICP-MS measurement of Pt concentration) (n=3), or with equivalent dose of free Cisplatin (100 μl, 1 mg/ml) (n=3). Mice were sacrificed 8 hours post-administration. The mice underwent perfusion using 20 ml saline to remove all the particles residing within the blood vessels.
After sacrifice and perfusion, mice brains were extracted and weighted followed by ICP-MS analysis to quantify the amounts of Au and Pt within the brain.

cisplatin+insulin-GNPs: 20 nm GNPs with mPEG-SH 5 kDa, PEG 1 kDa conjugated to cisplatin, PEG 5 kDa conjugated to insulin (60:20:20)
Au and Pt within the brain (ICP-MS) (IV 200 μl, after perfusion): both gold and platin were found within the brains | Amount of Pt within the brain compared to equivalent dose of free cisplatin (IV): significantly higher
